{"source": "patent US20260055200A1", "about": "“COMBINATION THERAPIES” (Alligator Bioscience AB, priority 2022, published 2026)", "molecules": {"B1": {"name": "Mitazalimab: agonistic, human monoclonal (IgG1) antibody targeting CD40 (antibody, chains of the INN, looked up, V domains shown)", "VH": "EVQLLESGGGLVQPGGSLRLSCAASGFTFSTYGMHWVRQAPGKGLEWLSYISGGSSYIFYADSVRGRFTISRDNSENALYLQMNSLRAEDTAVYYCARILRGGSGMDLWGQGTLVTVSS", "VL": "QSVLTQPPSASGTPGQRVTISCTGSSSNIGAGYNVYWYQQLPGTAPKLLIYGNINRPSGVPDRFSGSKSGTSASLAISGLRSEDEADYYCAAWDKSISGLVFGGGTKLTVL"}}, "key": {"[1]": {"test_system": "advanced stage solid tumours", "conditions": "cited from earlier work"}, "[2]": {"test_system": "human tumours transplanted into NSG mice; bladder cancer cells in hCD40tg mice", "conditions": "cited from earlier work"}, "[3]": {"test_system": "tumour associated macrophages (TAMs)", "conditions": "TAMs from human prostate and ovarian tumour samples; cited from earlier work"}, "[4]": {"test_system": "whole blood transcriptome", "test": "RNA-sequencing of peripheral whole blood of MB49 tumour-bearing hCD40tg mice", "assay_type": "in vivo, mouse", "conditions": "for Differentially expressed genes, p. adj < 0.05 / Differentially expressed genes, p. adj < 0.05 & FC > 2: of 14485 total genes", "description": "Peripheral blood was collected from the mice at the end of the first cycle and subjected to RNA-sequencing to identify pharmacodynamic biomarkers. RNA was extracted from whole blood after red blood cell lysis using GLOBINclear™ Kit, mouse/rat (AM1981, Invitrogen), and Mouse RiboPure™-Blood RNA Isolation Kit (AM1951, Invitrogen) according to the manufacturer's instruction. Purified RNA was stored in RNase-free microfuge tubes (AM12425, Invitrogen), and frozen at −80 C until further use.\nRNA library preparation and sequencing was performed by the Center for Translational Genomics (CTG, Lund University). RNA integrity was analyzed with the TapeStation 4200 (Agilent Technologies), using Agilent RNA ScreenTape and reagents (5067-5576, 5067-5577, Agilent Technologies). RNA concentration was analyzed with the Qubit Flex (Q33327 Invitrogen Thermo Fisher Scientific), using the QuantIT RNA HS Assay Kit (Q33140, Life Technologies). cDNA sequencing libraries were prepared using TruSeq® Stranded mRNA Library Prep kit (20020594, Illumina). The libraries were sequenced in a NovaSeq 6000 System (20012850, Illumina), using the NovaSeq 6000 SP Reagent Kit, 300 cycles v1.5 20028400). The reads were aligned to the mouse reference genome GRCm38 (mm10) using the STAR software (v 2.5.0a.13).\nR (v4.0.3) and R studio (v1.4.1103) were used to perform quality control and thresholding, normalization, dimensionality reduction, and visualization as well as differential gene expression analysis. Protein coding genes with a minimum of 5 reads in 3 or more samples were kept for analysis. For data visualization, filtered raw counts were normalized using the variance-stabilizing-transformation method in the DESeq2 package (version 1.38.3).\nPrincipal component analysis (PCA) was used to visualize the data, and assess the effects of the treatment at transcriptomic level.\nTo identify differentially expressed genes among treatment groups, filtered raw counts were normalized using the median of ratios method in the DESeq2 package. Treatment groups were compared using the negative binomial Wald's test (adjusted-p.value [adj-p.val]<0.05, fold change>2).\nPathway enrichment analysis was performed using EnrichR (v3.0) by querying differentially expressed genes among treatment groups onto the gene ontology database (GO, GO_bioprocess_2018). Re-occurring and highly ranked pathways (adj.p-value<0.05) were selected and harmonized throughout the samples using gene set variation transformation (GSVA). The resulting GSVA scores were plotted as a spider plot for pathway activity comparison among the groups."}}}
{"molecule": "B1", "values": [{"measurement": "doses shown safe and well tolerated", "setting": "[1]; Phase I study NCT02829099", "result": "up to 1200 μg/kg"}, {"measurement": "grade of most drug related adverse events", "setting": "[1]; Phase I study NCT02829099", "result": "grade 1 or 2"}, {"measurement": "patients who experienced a DLT", "setting": "[1]; headache 5 days, grade 3 liver enzyme with grade 2 bilirubin elevation", "result": "Two"}, {"measurement": "MTD", "setting": "[1]; human, in vivo, iv", "result": "No MTD was identified"}, {"measurement": "duration of SD in one of seven pancreatic cancer patients", "setting": "[1]; in vivo", "result": "more than 6 months"}, {"measurement": "response observed", "setting": "[1]; patient with renal cell cancer, 1200 μg/kg", "result": "partial response (PR)"}, {"measurement": "time on study of the patient with PR", "setting": "[1]; renal cell cancer, 1200 μg/kg, fourteen cycles", "result": 9.2, "unit": "months"}, {"measurement": "immunity to tumour re-challenge", "setting": "[2]; bladder cancer cells in hCD40tg mice", "result": "at least 5 months"}, {"measurement": "effect on tumour growth and survival in combination", "setting": "[2]; combined with checkpoint inhibitors, vaccination or chemotherapy (e.g. mFOLFIRINOX), hCD40tg mice", "result": "synergistically enhanced effect"}, {"measurement": "anti-tumour efficacy in vivo", "setting": "[2]; human tumours in NSG mice and hCD40tg mice", "result": "immune-mediated and antibody-dependent cell-mediated cytotoxicity (ADCC)-dependent anti-tumour efficacy"}, {"measurement": "polarization of TAMs (upregulation of e.g. CD83)", "setting": "[3]", "result": "from a more immune-suppressive phenotype into a more immune-inflammatory phenotype"}, {"measurement": "expression of genes involved in response to type-1 IFN and TLR signaling", "setting": "[4]; alone or in combination with FOLFIRINOX", "result": "high expression"}, {"measurement": "Differentially expressed genes, p. adj < 0.05", "setting": "[4]; vs Folfirinox", "result": 3953}, {"measurement": "Differentially expressed genes, p. adj < 0.05 & FC > 2", "setting": "[4]; vs Folfirinox", "result": 1717}, {"measurement": "Differentially expressed genes, p. adj < 0.05", "setting": "[4]; vs Mita-Folfirinox", "result": 453}, {"measurement": "Differentially expressed genes, p. adj < 0.05 & FC > 2", "setting": "[4]; vs Mita-Folfirinox", "result": 221}, {"measurement": "Differentially expressed genes, p. adj < 0.05", "setting": "[4]; vs untreated", "result": 2114}, {"measurement": "Differentially expressed genes, p. adj < 0.05 & FC > 2", "setting": "[4]; vs untreated", "result": 849}]}
